From the supplement of paper PMC10567573

B1: RIPK4 (parent)
chain: RERMELLEEAKKMEMAKFRYILPV

Variants of: B1
Test: protein stability index of a GFP-peptide fusion (GPS, HEK-293T) (PSI 1-6); higher = more stable
Conditions: c terminus: a fixed tail appended
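Further: lentivirally expressed fusions sorted by FACS into six bins by GFP to DsRed ratio, PSI derived from sequencing read proportions per bin multiplied by bin number.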

Protein stability index: each site, then its substitutions
K12: Y 2.42; F 2.5; T 2.9; S 2.75; V 2.82; G 2.36; D 3.3; C 3.35; L 2.21; I 2.37; W 2.65; H 3.36; P 3.5; M 2.78; Q 3.41; A 3.43; E 3.46; N 3.23
E14: F 1.86; V 1.71; P 3.29; Q 3.12; W 2.92; I 2.16; R 2.06; G 2.44; A 2.78; K 2.21; C 3.63; Y 2.03; N 2.79; S 2.86; T 2.65; M 2.89; L 2.44; D 3.8
K17: L 2.04; Q 3.5; G 2.94; W 2.29; V 2.75; Y 2.8; S 2.99; P 1.86; C 2.01; H 2.68; D 2.84; N 1.01; I 2.72; M 3.5; F 1.26; T 3.1; A 1.87
Y20: P 3.57; E 4.16; S 3.91; C 2.67; D 2.55; I 1.93; M 2.18; W 2.24; Q 2.34; N 3.05; F 2.27; L 2.03; A 3.73; G 3.74; T 3.4; H 2.83; V 2.59
M15: G 3.59; Q 3.34; K 3.93; P 4.15; L 3.48; S 4.59; W 2; I 4.15; R 3.97; H 4.28; Y 3.41; V 3.02; E 4.61; F 3.91
K11: M 2.45; W 2.51; R 2.81; Q 3.17; S 3.37; H 3.05; P 2.91; V 2.32; Y 1.08; N 3.08; L 4.66; I 2.39
M13: K 3.84; E 3.19; Q 3.31; T 3.06; V 2.85; N 3.8; I 3.59; S 3.51; F 3.01; L 3.37; A 3.1; P 2.34; G 3.56; W 3.14; Y 2.92; H 3.13
R19: C 2.51; L 2.14; I 1.27; P 2.13; A 1.96; N 2.94; S 2.86; M 1.97; F 1.15; H 2.6; T 2.67; Y 2.38; K 3.04; Q 3.65; G 3.03; D 3.47; E 3.28
L22: K 4.1; I 5.51; A 4.27
A16: T 2.85; P 3.49; Y 3.32; G 3.31; V 3.03; N 4.29; K 3.8; Q 3.62; H 4.27; E 2.9; I 3.02; C 2.54; W 2.58; F 2.29
I21: R 3.2; G 3.68; E 4.11; W 2.05; F 4.25; H 2.94; N 3.85; K 3.45; Y 2.18; L 3.42
F18: A 3.16; N 4.03; M 2.75; K 4.06; T 3.81; P 3.86; E 3.55; I 2.79; G 3.69; Q 3.61; C 2.75
